{"source": "patent US20250352667A1", "key": {"[1]": {"target": "KEAP1 (wild-type full-length), His-tagged (human) (UniProt Q14145)", "sequence (Q14145 2-624 limits assumed)": "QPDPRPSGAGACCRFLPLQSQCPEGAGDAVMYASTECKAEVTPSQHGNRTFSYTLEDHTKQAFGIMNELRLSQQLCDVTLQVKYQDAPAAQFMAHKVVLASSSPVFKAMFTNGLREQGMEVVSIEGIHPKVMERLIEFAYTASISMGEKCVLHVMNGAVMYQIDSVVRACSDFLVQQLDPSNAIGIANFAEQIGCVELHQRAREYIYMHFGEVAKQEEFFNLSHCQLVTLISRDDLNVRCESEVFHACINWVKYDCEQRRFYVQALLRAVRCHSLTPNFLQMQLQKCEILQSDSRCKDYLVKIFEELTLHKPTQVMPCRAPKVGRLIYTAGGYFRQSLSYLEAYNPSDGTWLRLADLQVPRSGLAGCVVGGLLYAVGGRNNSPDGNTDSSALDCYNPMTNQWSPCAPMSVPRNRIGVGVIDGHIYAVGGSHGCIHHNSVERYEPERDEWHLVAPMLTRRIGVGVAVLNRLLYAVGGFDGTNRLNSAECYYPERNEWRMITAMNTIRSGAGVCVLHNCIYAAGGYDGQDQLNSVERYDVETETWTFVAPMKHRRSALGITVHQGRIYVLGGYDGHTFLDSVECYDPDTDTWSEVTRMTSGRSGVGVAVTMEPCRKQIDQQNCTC", "test": "AlphaScreen; 9.6 nM FLAG-NRF2, 150 nM His-KEAP1; Rep 3; control for I86V"}, "[2]": {"target": "KEAP1 (wild-type full-length), His-tagged (human) (UniProt Q14145)", "test": "AlphaScreen; 38.4 nM FLAG-NRF2, 150 nM His-KEAP1; Rep 1; control for I86V"}, "[3]": {"target": "KEAP1 (wild-type full-length), His-tagged (human) (UniProt Q14145)", "test": "AlphaScreen; 9.6 nM FLAG-NRF2, 150 nM His-KEAP1; signal against NRF2 only; control for I86V"}, "[4]": {"target": "KEAP1 (wild-type full-length), His-tagged (human) (UniProt Q14145)", "test": "AlphaScreen; 38.4 nM FLAG-NRF2, 150 nM His-KEAP1; signal against NRF2 only; control for I28V"}, "[5]": {"target": "KEAP1 (wild-type full-length), His-tagged (human) (UniProt Q14145)", "test": "AlphaScreen; 38.4 nM FLAG-NRF2, 150 nM His-KEAP1; signal against NRF2 only; control for I86V"}, "[6]": {"target": "KEAP1 (wild-type full-length), His-tagged (human) (UniProt Q14145)", "test": "AlphaScreen; FLAG-NRF2 wt isoform 1 9.6 nM, His-KEAP1 150 nM; Rep 1; positive control for I86V"}, "[7]": {"target": "KEAP1 (wild-type full-length), His-tagged (human) (UniProt Q14145)", "test": "AlphaScreen; FLAG-NRF2 wt isoform 1 2.4 nM, His-KEAP1 150 nM; Rep 1; positive control for Q75R"}, "[8]": {"target": "KEAP1 (wild-type full-length), His-tagged (human) (UniProt Q14145)", "test": "AlphaScreen; FLAG-NRF2 wt isoform 1 9.6 nM, His-KEAP1 150 nM; Rep 1; positive control for Q75R"}, "[9]": {"target": "KEAP1 (wild-type full-length), His-tagged (human) (UniProt Q14145)", "test": "AlphaScreen; FLAG-NRF2 wt isoform 1 19.2 nM, His-KEAP1 150 nM; Rep 3; positive control for I86V"}, "[10]": {"target": "KEAP1 (wild-type full-length), His-tagged (human) (UniProt Q14145)", "test": "AlphaScreen; FLAG-NRF2 wt isoform 1 38.4 nM, His-KEAP1 150 nM; Rep 1; positive control for I86V"}, "[11]": {"target": "KEAP1 (wild-type full-length), His-tagged (human) (UniProt Q14145)", "test": "AlphaScreen; FLAG-NRF2 wt isoform 1 19.2 nM, His-KEAP1 150 nM; Rep 2; positive control for Q75R"}, "[12]": {"target": "KEAP1 (wild-type full-length), His-tagged (human) (UniProt Q14145)", "test": "AlphaScreen; FLAG-NRF2 wt isoform 1 76.8 nM, His-KEAP1 150 nM; Rep 2; positive control for Q75R"}, "[13]": {"target": "KEAP1 (wild-type full-length), His-tagged (human) (UniProt Q14145)", "test": "AlphaScreen; NRF2 wt isoform 1 4.8 nM, KEAP1 150 nM; signal against NRF2-only control; control for Q75R"}, "[14]": {"target": "KEAP1 (wild-type full-length), His-tagged (human) (UniProt Q14145)", "test": "AlphaScreen; NRF2 wt isoform 1 307.2 nM, KEAP1 150 nM; signal against NRF2-only control; control for Q75R"}, "[15]": {"target": "KEAP1 (wild-type full-length), His-tagged (human) (UniProt Q14145)", "test": "AlphaScreen; 19.2 nM FLAG-NRF2, 150 nM His-KEAP1; Rep 1"}, "[16]": {"target": "KEAP1 (wild-type full-length), His-tagged (human) (UniProt Q14145)", "test": "AlphaScreen; 2.4 nM FLAG-NRF2, 150 nM His-KEAP1; signal against NRF2 only"}, "[17]": {"target": "KEAP1 (wild-type full-length), His-tagged (human) (UniProt Q14145)", "test": "AlphaScreen; 4.8 nM FLAG-NRF2, 150 nM His-KEAP1; signal against NRF2 only"}, "[18]": {"target": "KEAP1 (wild-type full-length), His-tagged (human) (UniProt Q14145)", "test": "AlphaScreen; 19.2 nM FLAG-NRF2, 150 nM His-KEAP1 (same value as in Table 27)"}, "[19]": {"target": "KEAP1 (wild-type full-length), His-tagged (human) (UniProt Q14145)", "test": "AlphaScreen; 9.6 nM FLAG-NRF2, 150 nM His-KEAP1; Repeat 2 (same value as in Table 27)"}, "[20]": {"target": "KEAP1 (wild-type full-length), His-tagged (human) (UniProt Q14145)", "test": "AlphaScreen; FLAG-NRF2 Q75R 2.4 nM, His-KEAP1 150 nM; Rep 1"}, "[21]": {"target": "KEAP1 (wild-type full-length), His-tagged (human) (UniProt Q14145)", "test": "AlphaScreen; FLAG-NRF2 Q75R 38.4 nM, His-KEAP1 150 nM; Rep 1"}, "[22]": {"target": "KEAP1 (wild-type full-length), His-tagged (human) (UniProt Q14145)", "test": "AlphaScreen; NRF2 Q75R 19.2 nM, KEAP1 150 nM; signal against NRF2-only control"}, "[23]": {"target": "KEAP1 (wild-type full-length), His-tagged (human) (UniProt Q14145)", "test": "AlphaScreen; FLAG-NRF2 I86V 2.4 nM, His-KEAP1 150 nM; Rep 1"}, "[24]": {"target": "KEAP1 (wild-type full-length), His-tagged (human) (UniProt Q14145)", "test": "AlphaScreen; FLAG-NRF2 I86V 4.8 nM, His-KEAP1 150 nM; Rep 2"}, "[25]": {"target": "KEAP1 (wild-type full-length), His-tagged (human) (UniProt Q14145)", "test": "AlphaScreen; FLAG-NRF2 I86V 19.2 nM, His-KEAP1 150 nM; Rep 1"}, "[26]": {"target": "KEAP1 (wild-type full-length), His-tagged (human) (UniProt Q14145)", "test": "AlphaScreen; FLAG-NRF2 I86V 153.6 nM, His-KEAP1 150 nM; Rep 1"}, "[27]": {"target": "KEAP1 (wild-type full-length), His-tagged (human) (UniProt Q14145)", "test": "AlphaScreen; NRF2 I86V 1228.8 nM, KEAP1 150 nM; signal against NRF2-only control"}}, "data": [{"binder": "NRF2 isoform 1 (wild-type full-length), FLAG-tagged (protein) MMDLELPPPGLPSQQDMDLIDILWRQDIDLGVSREVFDFSQRRKEYELEKQKKLEKERQEQLQKEQEKAFFAQLQLDEETGEFLPIQPAQHIQSETSGSANYSQVAHIPKSDALYFDDCMQLLAQTFPFVDDNEVSSATFQSLVPDIPGHIESPVFIATNQAQSPETSVAQVAPVDLDGMQQDIEQVWEELLSIPELQCLNIENDKLVETTMVPSPEAKLTEVDNYHFYSSIPSMEKEVGNCSPHFLNAFEDSFSSILSTEDPNQLTVNSLNSDATVNTDFGDEFYSAFIAEPSISNSMPSPATLSHSLSELLNGPIDVSDLSLCKAFNQNHPESTAEFNDSDSGISLNTSPSVASPEHSVESSSYGDTLLGLSDSEVEELDSAPGSVKQNGPKTPVHSSGDMVQPLSPSQGQSTHVHDAQCENTPEKELPVSPGHRKTPFTKDKHSSRLEAHLTRDELRAKALHIPFPVEKIINLPVVDFNEMMSKEQFNEAQLALIRDIRRRGKNKVAAQNCRKRKLENIVELEQDLDHLKDEKEKLLKEKGENDKSLHLLKKQLSTLYLEVFSMLRDEDGKPYSPSEYSLQQTRDGNVFLVPKSKKPDVKKN", "values": [{"measurement": "A-counts", "setting": "[1]", "value": 2410, "unit": "A-counts"}, {"measurement": "A-counts", "setting": "[2]", "value": 3100, "unit": "A-counts"}, {"measurement": "S/N", "setting": "[3]", "value": 3.6}, {"measurement": "S/N", "setting": "[4]", "value": 3.6}, {"measurement": "S/N", "setting": "[5]", "value": 3}, {"measurement": "A-counts (NRF2 plus KEAP1)", "setting": "[6]", "value": 2640, "unit": "A-counts"}, {"measurement": "A-counts (NRF2 plus KEAP1)", "setting": "[7]", "value": 419, "unit": "A-counts"}, {"measurement": "A-counts (NRF2 plus KEAP1)", "setting": "[8]", "value": 1024, "unit": "A-counts"}, {"measurement": "A-counts (NRF2 plus KEAP1)", "setting": "[9]", "value": 3040, "unit": "A-counts"}, {"measurement": "A-counts (NRF2 plus KEAP1)", "setting": "[10]", "value": 3100, "unit": "A-counts"}, {"measurement": "A-counts (NRF2 plus KEAP1)", "setting": "[11]", "value": 1480, "unit": "A-counts"}, {"measurement": "A-counts (NRF2 plus KEAP1)", "setting": "[12]", "value": 1420, "unit": "A-counts"}, {"measurement": "S/N", "setting": "[13]", "value": 2.5}, {"measurement": "S/N", "setting": "[14]", "value": 1.4}]}, {"binder": "NRF2 isoform 1 (I28V full-length), FLAG-tagged (protein) MMDLELPPPGLPSQQDMDLIDILWRQDVDLGVSREVFDFSQRRKEYELEKQKKLEKERQEQLQKEQEKAFFAQLQLDEETGEFLPIQPAQHIQSETSGSANYSQVAHIPKSDALYFDDCMQLLAQTFPFVDDNEVSSATFQSLVPDIPGHIESPVFIATNQAQSPETSVAQVAPVDLDGMQQDIEQVWEELLSIPELQCLNIENDKLVETTMVPSPEAKLTEVDNYHFYSSIPSMEKEVGNCSPHFLNAFEDSFSSILSTEDPNQLTVNSLNSDATVNTDFGDEFYSAFIAEPSISNSMPSPATLSHSLSELLNGPIDVSDLSLCKAFNQNHPESTAEFNDSDSGISLNTSPSVASPEHSVESSSYGDTLLGLSDSEVEELDSAPGSVKQNGPKTPVHSSGDMVQPLSPSQGQSTHVHDAQCENTPEKELPVSPGHRKTPFTKDKHSSRLEAHLTRDELRAKALHIPFPVEKIINLPVVDFNEMMSKEQFNEAQLALIRDIRRRGKNKVAAQNCRKRKLENIVELEQDLDHLKDEKEKLLKEKGENDKSLHLLKKQLSTLYLEVFSMLRDEDGKPYSPSEYSLQQTRDGNVFLVPKSKKPDVKKN", "values": [{"measurement": "A-counts", "setting": "[15]", "value": 1730, "unit": "A-counts"}, {"measurement": "S/N", "setting": "[16]", "value": 2.2}, {"measurement": "S/N", "setting": "[17]", "value": 2.9}, {"measurement": "S/N", "setting": "[18]", "value": 3.2}, {"measurement": "A-counts", "setting": "[19]", "value": 1560, "unit": "A-counts"}]}, {"binder": "NRF2 isoform 1 (Q75R full-length), FLAG-tagged (protein) MMDLELPPPGLPSQQDMDLIDILWRQDIDLGVSREVFDFSQRRKEYELEKQKKLEKERQEQLQKEQEKAFFAQLRLDEETGEFLPIQPAQHIQSETSGSANYSQVAHIPKSDALYFDDCMQLLAQTFPFVDDNEVSSATFQSLVPDIPGHIESPVFIATNQAQSPETSVAQVAPVDLDGMQQDIEQVWEELLSIPELQCLNIENDKLVETTMVPSPEAKLTEVDNYHFYSSIPSMEKEVGNCSPHFLNAFEDSFSSILSTEDPNQLTVNSLNSDATVNTDFGDEFYSAFIAEPSISNSMPSPATLSHSLSELLNGPIDVSDLSLCKAFNQNHPESTAEFNDSDSGISLNTSPSVASPEHSVESSSYGDTLLGLSDSEVEELDSAPGSVKQNGPKTPVHSSGDMVQPLSPSQGQSTHVHDAQCENTPEKELPVSPGHRKTPFTKDKHSSRLEAHLTRDELRAKALHIPFPVEKIINLPVVDFNEMMSKEQFNEAQLALIRDIRRRGKNKVAAQNCRKRKLENIVELEQDLDHLKDEKEKLLKEKGENDKSLHLLKKQLSTLYLEVFSMLRDEDGKPYSPSEYSLQQTRDGNVFLVPKSKKPDVKKN", "values": [{"measurement": "A-counts (NRF2 plus KEAP1)", "setting": "[20]", "value": 588, "unit": "A-counts"}, {"measurement": "A-counts (NRF2 plus KEAP1)", "setting": "[21]", "value": 1200, "unit": "A-counts"}, {"measurement": "S/N", "setting": "[22]", "value": 2.5}]}, {"binder": "NRF2 isoform 1 (I86V full-length), FLAG-tagged (protein) MMDLELPPPGLPSQQDMDLIDILWRQDIDLGVSREVFDFSQRRKEYELEKQKKLEKERQEQLQKEQEKAFFAQLQLDEETGEFLPVQPAQHIQSETSGSANYSQVAHIPKSDALYFDDCMQLLAQTFPFVDDNEVSSATFQSLVPDIPGHIESPVFIATNQAQSPETSVAQVAPVDLDGMQQDIEQVWEELLSIPELQCLNIENDKLVETTMVPSPEAKLTEVDNYHFYSSIPSMEKEVGNCSPHFLNAFEDSFSSILSTEDPNQLTVNSLNSDATVNTDFGDEFYSAFIAEPSISNSMPSPATLSHSLSELLNGPIDVSDLSLCKAFNQNHPESTAEFNDSDSGISLNTSPSVASPEHSVESSSYGDTLLGLSDSEVEELDSAPGSVKQNGPKTPVHSSGDMVQPLSPSQGQSTHVHDAQCENTPEKELPVSPGHRKTPFTKDKHSSRLEAHLTRDELRAKALHIPFPVEKIINLPVVDFNEMMSKEQFNEAQLALIRDIRRRGKNKVAAQNCRKRKLENIVELEQDLDHLKDEKEKLLKEKGENDKSLHLLKKQLSTLYLEVFSMLRDEDGKPYSPSEYSLQQTRDGNVFLVPKSKKPDVKKN", "values": [{"measurement": "A-counts (NRF2 plus KEAP1)", "setting": "[23]", "value": 1730, "unit": "A-counts"}, {"measurement": "A-counts (NRF2 plus KEAP1)", "setting": "[24]", "value": 2110, "unit": "A-counts"}, {"measurement": "A-counts (NRF2 plus KEAP1)", "setting": "[25]", "value": 3120, "unit": "A-counts"}, {"measurement": "A-counts (NRF2 plus KEAP1)", "setting": "[26]", "value": 2380, "unit": "A-counts"}, {"measurement": "S/N", "setting": "[27]", "value": 0.9}]}]}
